Experimental findings from paper PMC11041648 are described below.

Read-outs that look alike come from different tables or passages of the source.

The target of assay [1] is PGT145 IgG (human). In words: BLI; Octet Red; PGT145 IgG (8 µg/mL) loaded on anti-human IgG Fc capture biosensors; twofold dilution series of SOSIP trimer as analyte; 3 min association, 3 min dissociation; PBS pH 7.4, 0.1% BSA, 0.005% Tween 20, 0.02% NaN3; 1:1 binding model; averages of at least two independent experiments.
PGT145 IgG (human), sequence (heavy, as listed by the source, chain 1 of 2): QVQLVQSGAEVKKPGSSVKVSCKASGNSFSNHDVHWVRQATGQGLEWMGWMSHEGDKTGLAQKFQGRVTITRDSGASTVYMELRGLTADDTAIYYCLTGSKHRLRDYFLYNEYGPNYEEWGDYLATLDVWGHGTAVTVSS
PGT145 IgG (human), sequence (light, as listed by the source, chain 2 of 2): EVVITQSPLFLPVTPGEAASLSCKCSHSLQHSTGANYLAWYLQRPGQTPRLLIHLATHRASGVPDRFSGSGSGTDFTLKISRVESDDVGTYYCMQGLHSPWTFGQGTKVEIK
Assay [2] has as its target PGT145 IgG (human). The description is as above. The source holds these as a separate data set.

The term Kd denotes the concentration at which binding is half-saturated. Read a low Kd as higher affinity. Usually koff stands for the first-order rate constant of dissociation. Read a low koff as slow dissociation. For orientation: kon means the rate constant with which the complex forms. Higher therefore signals faster complex formation. For the substance BG505 SOSIP.664 Env trimer (complex), in the assay with PGT145 IgG (human) [1], the dissociation constant Kd came to 16 nM, the koff turned out to be 0.00177 s⁻¹ and the kon stood at 120000 M⁻¹ s⁻¹. In the assay with PGT145 IgG (human) [2], this substance gave an equilibrium dissociation constant (Kd) of 15.6 nM, a koff of 0.00185 s⁻¹ and an on-rate constant (kon) of 129000 M⁻¹ s⁻¹.
Regarding BJOX2000 SOSIP.664 Env trimer (complex), in the assay with PGT145 IgG (human) [1], the dissociation constant (Kd) worked out at 27.7 nM, the off-rate constant (koff) is 0.00152 s⁻¹ and the kon worked out at 66700 M⁻¹ s⁻¹.
The matching figures for CNE8 SOSIP.664 Env trimer (complex): 50.8 nM, 0.00419 s⁻¹ and 83400 M⁻¹ s⁻¹.
